How the values were obtained:
[1] = biological target: 4E10-specific MPER peptide (gp41 residues 671-683) (HIV-1); assay: ELISA, peptide coated at 2 ug/ml
[2] = biological target: Z13e1-specific peptide (gp41 residues 666-677) (HIV-1); assay: ELISA, peptide coated at 2 ug/ml
[3] = biological target: full MPER peptide (ELISA; gp41 residues 656-683 with lysine triplicates) (HIV-1); assay: ELISA, peptide coated at 2 ug/ml
[4] = biological target: T1, centromere B (UniProt P07199 2-599); assay: Luminex AtheNA Multi-Lyte ANA bead assay
T1 construct: Commercial bead antigen; also called CentrB
T1 sequence: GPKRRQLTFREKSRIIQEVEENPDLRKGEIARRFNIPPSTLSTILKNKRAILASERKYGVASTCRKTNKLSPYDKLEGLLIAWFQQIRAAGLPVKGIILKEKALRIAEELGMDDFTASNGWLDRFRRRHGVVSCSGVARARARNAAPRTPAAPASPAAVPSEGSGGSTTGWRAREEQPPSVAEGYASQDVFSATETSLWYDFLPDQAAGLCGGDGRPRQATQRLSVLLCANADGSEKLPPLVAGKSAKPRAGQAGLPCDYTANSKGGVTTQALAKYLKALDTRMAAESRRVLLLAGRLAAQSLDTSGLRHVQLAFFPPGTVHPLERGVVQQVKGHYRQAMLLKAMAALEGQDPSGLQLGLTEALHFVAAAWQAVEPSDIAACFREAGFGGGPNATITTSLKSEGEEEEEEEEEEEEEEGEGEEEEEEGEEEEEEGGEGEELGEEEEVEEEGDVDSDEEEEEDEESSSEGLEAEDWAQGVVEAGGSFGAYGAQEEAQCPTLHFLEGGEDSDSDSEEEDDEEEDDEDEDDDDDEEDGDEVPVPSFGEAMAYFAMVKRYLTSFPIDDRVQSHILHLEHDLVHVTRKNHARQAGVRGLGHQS

[5] = biological target: T2, scleroderma 70 antigen (UniProt P11387 2-765); assay: Luminex AtheNA Multi-Lyte ANA bead assay
T2 construct: Commercial bead antigen; also called Scl 70; Sc1 70
T2 sequence: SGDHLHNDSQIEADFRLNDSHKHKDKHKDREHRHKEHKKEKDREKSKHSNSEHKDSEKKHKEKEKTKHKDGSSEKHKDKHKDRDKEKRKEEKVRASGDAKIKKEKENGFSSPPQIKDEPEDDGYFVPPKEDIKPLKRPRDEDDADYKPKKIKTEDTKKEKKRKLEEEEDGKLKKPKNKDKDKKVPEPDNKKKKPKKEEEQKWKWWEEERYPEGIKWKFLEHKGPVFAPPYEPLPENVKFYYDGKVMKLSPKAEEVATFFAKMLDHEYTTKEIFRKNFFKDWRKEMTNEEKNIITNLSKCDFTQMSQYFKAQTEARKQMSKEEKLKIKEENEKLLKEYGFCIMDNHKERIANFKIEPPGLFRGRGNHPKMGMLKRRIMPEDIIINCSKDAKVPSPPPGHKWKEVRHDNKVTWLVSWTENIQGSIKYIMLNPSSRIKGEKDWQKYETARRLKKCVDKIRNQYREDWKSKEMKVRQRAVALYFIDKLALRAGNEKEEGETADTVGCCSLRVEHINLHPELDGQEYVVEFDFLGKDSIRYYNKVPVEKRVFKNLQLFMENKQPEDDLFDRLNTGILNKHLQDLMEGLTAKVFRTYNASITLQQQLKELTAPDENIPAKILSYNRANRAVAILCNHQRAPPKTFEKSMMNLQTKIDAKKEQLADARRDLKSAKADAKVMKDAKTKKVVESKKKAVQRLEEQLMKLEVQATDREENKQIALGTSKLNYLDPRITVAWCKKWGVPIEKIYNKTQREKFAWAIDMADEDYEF

[6] = biological target: T3, Sjogren's syndrome antigen B (UniProt P05455 1-408); assay: Luminex AtheNA Multi-Lyte ANA bead assay
T3 construct: Commercial bead antigen; also called SSB; SS-B/La
T3 sequence: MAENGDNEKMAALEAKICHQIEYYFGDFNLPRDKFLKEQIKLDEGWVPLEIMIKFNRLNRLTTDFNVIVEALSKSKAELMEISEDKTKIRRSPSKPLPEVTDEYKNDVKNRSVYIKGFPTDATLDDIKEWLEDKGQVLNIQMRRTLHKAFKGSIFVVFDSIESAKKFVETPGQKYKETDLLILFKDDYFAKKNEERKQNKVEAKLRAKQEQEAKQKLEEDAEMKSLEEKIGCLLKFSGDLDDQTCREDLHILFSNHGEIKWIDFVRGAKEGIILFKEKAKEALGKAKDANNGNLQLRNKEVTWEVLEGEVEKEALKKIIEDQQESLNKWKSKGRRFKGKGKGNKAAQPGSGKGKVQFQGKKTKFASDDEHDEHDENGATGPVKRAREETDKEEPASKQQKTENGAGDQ

[7] = biological target: T4, Jo1 antigen (UniProt P12081 2-509); assay: Luminex AtheNA Multi-Lyte ANA bead assay
T4 construct: Commercial bead antigen
T4 sequence: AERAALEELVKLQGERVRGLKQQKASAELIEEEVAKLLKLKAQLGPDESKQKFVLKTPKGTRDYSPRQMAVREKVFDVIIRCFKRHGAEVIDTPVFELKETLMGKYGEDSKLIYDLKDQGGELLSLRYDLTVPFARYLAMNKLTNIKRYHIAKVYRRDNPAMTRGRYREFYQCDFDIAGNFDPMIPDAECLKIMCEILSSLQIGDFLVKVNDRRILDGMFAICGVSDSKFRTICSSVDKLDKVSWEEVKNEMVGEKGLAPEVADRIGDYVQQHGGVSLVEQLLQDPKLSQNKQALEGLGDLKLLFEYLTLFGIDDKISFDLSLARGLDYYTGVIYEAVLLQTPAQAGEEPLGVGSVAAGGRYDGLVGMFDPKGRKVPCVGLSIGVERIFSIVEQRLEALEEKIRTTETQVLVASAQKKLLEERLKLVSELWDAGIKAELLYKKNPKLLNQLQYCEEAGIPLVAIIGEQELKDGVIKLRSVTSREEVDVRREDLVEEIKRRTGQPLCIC

B1: 10E8 monoclonal antibody (full-length IgG) (antibody, V domains shown)
VH: EVQLVESGGGLVKPGGSLRLSCSASGFDFDNAWMTWVRQPPGKGLEWVGRITGPGEGWSVDYAAPVEGRFTISRLNSINFLYLEMNNLRMEDSGLYFCARTGKYYDFWSGYPPGEEYFQDWGRGTLVTVSS
VL: SYELTQETGVSVALGRTVTITCRGDSLRSHYASWYQKKPGQAPILLFYGKNNRPSGVPDRFSGSASGNRASLTISGAQAEDDAEYYCSSRDKSGSRLSVFGGGTKLTVL
notes: also called mAb 10E8; wild-type 10E8
binding result [1]: binds
binding result [2]: no binding
binding result [3]: binds
binding result [4]: no binding (tested: 50 ug/ml (highest concentration assayed))
binding result [5]: no binding (tested: 50 ug/ml (highest concentration assayed))
binding result [6]: no binding (tested: 50 ug/ml (highest concentration assayed))
binding result [7]: no binding (tested: 50 ug/ml (highest concentration assayed))

Source: patent publication US20140348785A1 (US Dept. of Health and Human Services, published 2014)
